Measured values: paper PMC6959358

Columns and labels:
Assay in all cases: co-immunoprecipitation (DYK-antibody beads) with immunoblot quantification
PKA = conditions: TnT-DYK expressed in HEK cells, immobilized on DYK-antibody beads, incubated with healthy control iPSC-CM lysate; n = 4; DYK negative control subtracted …; parent: est. 1.0; read off a plot
tropomyosin = tropomyosin (UniProt P09493); conditions: TnT-DYK expressed in HEK cells, immobilized on DYK-antibody beads, incubated with healthy control iPSC-CM lysate; n = 5; DYK negative control subtracted …; parent: est. 1.0; read off a plot
UniProt P09493, sequence (P09493 whole entry): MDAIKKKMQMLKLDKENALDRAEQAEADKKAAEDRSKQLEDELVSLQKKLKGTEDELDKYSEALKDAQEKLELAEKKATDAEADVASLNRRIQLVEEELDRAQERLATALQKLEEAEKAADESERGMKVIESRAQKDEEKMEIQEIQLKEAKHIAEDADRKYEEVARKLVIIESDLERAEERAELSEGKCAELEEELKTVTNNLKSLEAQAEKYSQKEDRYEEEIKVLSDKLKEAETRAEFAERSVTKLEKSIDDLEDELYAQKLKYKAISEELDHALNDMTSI

troponin C = troponin C (UniProt P63316); conditions: TnT-DYK expressed in HEK cells, immobilized on DYK-antibody beads, incubated with healthy control iPSC-CM lysate; n = 6; DYK negative control subtracted …; parent: est. 1.0; read off a plot
troponin I = troponin I (UniProt P19429); conditions: TnT-DYK expressed in HEK cells, immobilized on DYK-antibody beads, incubated with healthy control iPSC-CM lysate; n = 5; DYK negative control subtracted …; parent: est. 1.0; read off a plot
UniProt P19429, sequence (P19429 whole entry): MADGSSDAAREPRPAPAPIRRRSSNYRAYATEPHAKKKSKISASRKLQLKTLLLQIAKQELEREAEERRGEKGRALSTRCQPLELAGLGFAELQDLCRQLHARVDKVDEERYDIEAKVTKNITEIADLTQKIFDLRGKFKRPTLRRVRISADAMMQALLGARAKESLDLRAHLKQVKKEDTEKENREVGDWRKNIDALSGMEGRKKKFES

ratio to parent (PKA): 0.42
ratio to parent (tropomyosin): 0.57
ratio to parent (troponin C): 0.78
ratio to parent (troponin I): 0.73
Substance: TnT-WT-DYK (human cardiac troponin T, wild type, flag (DYK)-tagged) R173W
